Results reported in patent US20230038638A1, “COMPLEMENT FACTOR I-RELATED COMPOSITIONS AND METHODS” (published 2023).

Legend:
[1] = target: soluble human C3b (human) (UniProt P01024)
human C4b (human) [2] = target: T1, human C4b (human) (UniProt P0C0L4)
T1 sequence: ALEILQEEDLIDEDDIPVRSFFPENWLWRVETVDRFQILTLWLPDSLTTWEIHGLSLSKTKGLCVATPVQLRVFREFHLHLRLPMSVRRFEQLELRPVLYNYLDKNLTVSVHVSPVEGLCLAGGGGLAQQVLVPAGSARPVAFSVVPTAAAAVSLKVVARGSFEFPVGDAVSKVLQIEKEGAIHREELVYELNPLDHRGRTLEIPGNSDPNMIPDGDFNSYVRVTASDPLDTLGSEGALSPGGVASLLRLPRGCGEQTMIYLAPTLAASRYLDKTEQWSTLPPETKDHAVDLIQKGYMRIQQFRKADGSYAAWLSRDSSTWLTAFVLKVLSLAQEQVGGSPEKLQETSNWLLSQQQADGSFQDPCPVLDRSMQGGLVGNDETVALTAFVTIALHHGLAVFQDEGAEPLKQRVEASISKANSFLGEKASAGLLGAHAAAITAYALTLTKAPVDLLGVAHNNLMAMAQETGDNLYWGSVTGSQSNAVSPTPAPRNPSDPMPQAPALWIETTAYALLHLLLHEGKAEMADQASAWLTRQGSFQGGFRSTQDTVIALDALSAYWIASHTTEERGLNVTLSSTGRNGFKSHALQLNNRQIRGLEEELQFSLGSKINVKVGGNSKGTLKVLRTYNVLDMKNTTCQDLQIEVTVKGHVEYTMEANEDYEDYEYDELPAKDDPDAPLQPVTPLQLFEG

[3] = target: soluble human C3b (human) (UniProt P01024); remark: listed apart in the source
human C4b (human) [4] = target: T1, human C4b (human); remark: listed apart in the source

Substance	iC3b EC50 [1] [nM]	C4c EC50 (nM) (human C4b (human) [2])	iC3b Screen Ref Fold (fold of reference) [3]	C4b Screen Ref Fold (fold of reference) (human C4b (human) [4])	iC3b Screen Ref Fold (fold of CFI-HSA wild type) [3]	C4b Screen Ref Fold (fold of CFI-HSA wild type) (human C4b (human) [4])	C4c EC50 (human C4b (human) [2]) [nM]
CFI-HSA variant E461V (enzyme)	8.9	64.4	2.03	4.79	–	–	–
CFI-HSA variant E530F; E457G; E461Q; N531G (enzyme)	2.9	9.1	–	–	2.48	4.17	–
CFI-HSA variant E530R (enzyme)	14.7	–	0.8	0.76	–	–	> 1000
CFI-HSA variant G406A (enzyme)	42.6	176	0.36	1.96	–	–	–
CFI-HSA variant G406D (enzyme)	151	> 1000	0.12	0.33	–	–	–
CFI-HSA variant G406D; Y408L (enzyme)	78.2	–	-0.02	0.15	–	–	> 1000
CFI-HSA variant G406E (enzyme)	116	> 1000	0.13	0.88	–	–	–
CFI-HSA variant G406F (enzyme)	37.2	–	0.73	0.72	–	–	> 1000
CFI-HSA variant G406H (enzyme)	20.4	–	0.6	1.17	–	–	197
CFI-HSA variant G406I (enzyme)	54.4	–	0.4	0.97	–	–	> 1000
CFI-HSA variant G406L (enzyme)	31.9	–	0.82	0.92	–	–	386
CFI-HSA variant G406M (enzyme)	40.5	–	0.6	1.17	–	–	> 1000
CFI-HSA variant G406N (enzyme)	35.2	–	0.59	0.94	–	–	> 1000
CFI-HSA variant G406P (enzyme)	35.9	–	0.47	0.49	–	–	> 1000
CFI-HSA variant G406Q (enzyme)	30.7	–	0.68	0.91	–	–	> 1000
CFI-HSA variant G406R (enzyme)	19	474	1.31	1.31	–	–	–
CFI-HSA variant G406S (enzyme)	32.6	–	0.4	1.83	–	–	315
CFI-HSA variant G406T (enzyme)	52.4	–	0.52	1.09	–	–	> 1000
CFI-HSA variant G406V (enzyme)	43.1	–	0.44	1.09	–	–	> 1000
CFI-HSA variant G406W (enzyme)	65.5	–	0.38	1.57	–	–	> 1000
CFI-HSA variant G406Y (enzyme)	14.9	–	0.39	0.43	–	–	> 1000
CFI-HSA variant K418G; D425G (enzyme)	28.5	–	0.19	0.84	–	–	865
CFI-HSA variant K504F (enzyme)	77.5	> 1000	0.13	0.29	–	–	–
CFI-HSA variant K504I (enzyme)	176	> 1000	0.1	0.05	–	–	–

Substance	iC3b EC50 [1] [nM]	C4c EC50 (nM) (human C4b (human) [2])	iC3b Screen Ref Fold (fold of reference) [3]	C4b Screen Ref Fold (fold of reference) (human C4b (human) [4])	iC3b Screen Ref Fold (fold of CFI-HSA wild type) [3]	C4b Screen Ref Fold (fold of CFI-HSA wild type) (human C4b (human) [4])	C4c EC50 (human C4b (human) [2]) [nM]
CFI-HSA variant K504M (enzyme)	43.8	> 1000	0.52	0.14	–	–	–
CFI-HSA variant K504N (enzyme)	76.8	> 1000	0.18	0.57	–	–	–
CFI-HSA variant K504R; D425R; E457G; E461Q; N531G (enzyme)	4.2	8.4	–	–	1.59	4.19	–
CFI-HSA variant K504R; E457G; E461Q; N531G (enzyme)	3	8.2	–	–	2.98	4.18	–
CFI-HSA variant K504R; E530F; D425K; P558G (enzyme)	5.2	> 1000	–	–	3.07	0.08	–
CFI-HSA variant K504R; E530F; D425K; P558S (enzyme)	5.7	> 1000	–	–	2.91	0.05	–
CFI-HSA variant K504R; E530F; D425K; P558S; E457G; E461Q; N531G (enzyme)	2.4	6.9	–	–	1.98	3.92	–
CFI-HSA variant K504R; E530F; D425R; P558G (enzyme)	6.2	> 1000	–	–	2.97	0.02	–
CFI-HSA variant K504R; E530F; D425R; P558S (enzyme)	5.2	> 1000	–	–	3	0.09	–
CFI-HSA variant K504R; E530F; E457G; E461Q; N531G (enzyme)	4.6	16.2	–	–	1.8	3.91	–
CFI-HSA variant K504R; P558S; E457G; E461Q; N531G (enzyme)	5.5	9	–	–	2.12	4.03	–
CFI-HSA variant K504S (enzyme)	43.7	> 1000	0.25	0.45	–	–	–
CFI-HSA variant K504T (enzyme)	43.5	> 1000	0.73	0.1	–	–	–
CFI-HSA variant K504V (enzyme)	104	> 1000	0.21	0.07	–	–	–
CFI-HSA variant K504W (enzyme)	48.7	> 1000	0.12	0.27	–	–	–
CFI-HSA variant K504Y (enzyme)	51.6	196	0.18	2.86	–	–	–
CFI-HSA variant N422G (enzyme)	25.5	238	–	–	1.34	0.88	–
CFI-HSA variant N422K; E457G; E461Q; Q467K; N531G (enzyme)	2.5	5	–	–	2.84	3.85	–
CFI-HSA variant N460G (enzyme)	17.5	156	–	–	1.61	1.69	–
CFI-HSA variant N531K (enzyme)	13	223	-0.01	3.03	–	–	–
CFI-HSA variant N531L (enzyme)	17.6	219	1.04	3.47	–	–	–
CFI-HSA variant N531M (enzyme)	21.2	99.8	0	2.48	–	–	–
CFI-HSA variant P558G; E457G; E461Q; N531G (enzyme)	5	7.1	–	–	1.87	3.97	–
